The text below walks through data of patent publication US12065471B2, “B*44 restricted peptides for use in immunotherapy against cancers and related methods” (Immatics Biotechnologies GmbH, priority 2018, dated 2024).

The target of this experiment is HLA-B*44:05 (Homo sapiens, UniProt P01889, A223V/A65T/A93T/A95T/D201E/D98Y/E176V/E187L/E204Q/E69K/G107R/H137Y/K202T/L105A/L119I/N104T/N87E/Q56L/Q94N/R106L/R155S/R180D/S101N/S121R/S35A/S48T/T118I/V36M/W191S/Y91S). The experiment in a line: MHC binding assay (UV-ligand exchange, β2m ELISA, peptide exchange yield). Particulars: binding to HLA-B*44:05. The procedure, abridged:
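Peptide–HLA complexes formed by UV-ligand exchange of a UV-cleavable peptide for the test peptide. Exchange yield measured by β2m ELISA: complexes diluted 100-fold and captured on streptavidin, detected with HRP anti-β2m and TMB, read at 450 nm. Quantified against refolded HLA-A*02:01/MLA-001 monomer standards, 15-500 ng/ml.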
Take “406 (GETVVLKNM; listed as Homo sapiens) [compound 406]”: the “Peptide exchange (MHC class I binding score, peptide exchange yield)” value (“Peptide exchange” below) is recorded as “+++ (>50 = +++)”.

“379 (AENRVGKMEA; listed as Homo sapiens) [compound 379]”: the “Peptide exchange” value is recorded as “++ (>20% = ++)”.

As for “356 (TEAVLNRY; listed as Homo sapiens) [compound 356]”, the “Peptide exchange” value was “++ (>20% = ++)”.

Turning to “367 (TEFAVKLKI; listed as Homo sapiens) [compound 367]”, the “Peptide exchange” value was “+++ (>50 = +++)”.

Regarding “330 (SEHLFGTSY; listed as Homo sapiens) [compound 330]”, the “Peptide exchange” value is “+++ (>50 = +++)”.

For “253 (QEILHGAVRF; listed as Homo sapiens) [compound 253]”, the “Peptide exchange” value is “+++ (>50 = +++)”.

For the substance “373 (REDPIVYEI; listed as Homo sapiens) [compound 373]”, the “Peptide exchange” value is “++ (>20% = ++)”.

“141 (SEKWFRMGF; listed as Homo sapiens) [compound 141]”: the “Peptide exchange” value is “+++ (>50 = +++)”.

Regarding “374 (NEAEWQEIL; listed as Homo sapiens) [compound 374]”, the “Peptide exchange” value is “+++ (>50 = +++)”.

Regarding “94 (SLAELIAKDW; listed as Homo sapiens) [compound 94]”, the “Peptide exchange” value is reported as “++ (>20% = ++)”.

On to “232 (YEIRAEAL; listed as Homo sapiens) [compound 232]”, for which the “Peptide exchange” value was “++ (>20% = ++)”.

For the substance “113 (MEFKTLNKN; listed as Homo sapiens) [compound 113]”, the “Peptide exchange” value is “++ (>20% = ++)”.

With “95 (AAFEDAQGHIW; listed as Homo sapiens) [compound 95]”, the “Peptide exchange” value is listed as “++++ (>75% = ++++)”.

For the substance “291 (DEQLLLRF; listed as Homo sapiens) [compound 291]”, the “Peptide exchange” value was “++ (>20% = ++)”.

In the case of “329 (SEPQITVNF; listed as Homo sapiens) [compound 329]”, the “Peptide exchange” value is on record as “+++ (>50 = +++)”.

As for “404 (AEREQVIKL; listed as Homo sapiens) [compound 404]”, the “Peptide exchange” value was “++++ (>75% = ++++)”.

Turning to “3 (DEIFTNDRRW; listed as Homo sapiens) [compound 3]”, the “Peptide exchange” value was “++ (>20% = ++)”.

For the substance “50 (SEYVHSSFSGF; listed as Homo sapiens) [compound 50]”, the “Peptide exchange” value is listed as “+++ (>50 = +++)”.

As to “354 (TEIMEKTTL; listed as Homo sapiens) [compound 354]”, the “Peptide exchange” value is “+++ (>50 = +++)”.

With “85 (SEIDEKVTDL; listed as Homo sapiens) [compound 85]”, the “Peptide exchange” value was “+++ (>50 = +++)”.

“387 (GEVQENYKL; listed as Homo sapiens) [compound 387]”: the “Peptide exchange” value was “+++ (>50 = +++)”.

Turning to “128 (TELTEARVQVW; listed as Homo sapiens) [compound 128]”, the “Peptide exchange” value was “+++ (>50 = +++)”.

Consider “355 (SETSTGTSV; listed as Homo sapiens) [compound 355]”, for which the “Peptide exchange” value is given as “++ (>20% = ++)”.

With “114 (VEVNGVPRW; listed as Homo sapiens) [compound 114]”, the “Peptide exchange” value is “++++ (>75% = ++++)”.

“142 (QELFLHPVL; listed as Homo sapiens) [compound 142]”: the “Peptide exchange” value is listed as “++++ (>75% = ++++)”.

For “346 (EEIENLQAQF; listed as Homo sapiens) [compound 346]”, the “Peptide exchange” value was “++ (>20% = ++)”.

“126 (SEASQSPQY; listed as Homo sapiens) [compound 126]”: the “Peptide exchange” value is on record as “+++ (>50 = +++)”.

As for “323 (SETAVVNVTY; listed as Homo sapiens) [compound 323]”, the “Peptide exchange” value was “++++ (>75% = ++++)”.

Regarding “283 (VEEEISRHY; listed as Homo sapiens) [compound 283]”, the “Peptide exchange” value is on record as “++ (>20% = ++)”.

Regarding “244 (VESSQAFTW; listed as Homo sapiens) [compound 244]”, the “Peptide exchange” value was “+++ (>50 = +++)”.

With “419 (SELSLLSLY; listed as Homo sapiens) [compound 419]”, the “Peptide exchange” value is “+++ (>50 = +++)”.

On to “177 (LEEPMPFFY; listed as Homo sapiens) [compound 177]”, for which the “Peptide exchange” value is “+ (>10% = +)”.

Regarding “152 (HENLIEDF; listed as Homo sapiens) [compound 152]”, the “Peptide exchange” value is on record as “+++ (>50 = +++)”.

For “2 (EEFLRPRSL; listed as Homo sapiens) [compound 2]”, the “Peptide exchange” value is “++ (>20% = ++)”.

Take “167 (AETENRYCV; listed as Homo sapiens) [compound 167]”: the “Peptide exchange” value is given as “+++ (>50 = +++)”.

With “97 (ELVHMINW; listed as Homo sapiens) [compound 97]”, the “Peptide exchange” value is recorded as “++ (>20% = ++)”.

As for “201 (MEILWKTLT; listed as Homo sapiens) [compound 201]”, the “Peptide exchange” value is on record as “++++ (>75% = ++++)”.

Regarding “52 (EDNPSGHTY; listed as Homo sapiens) [compound 52]”, the “Peptide exchange” value is on record as “++ (>20% = ++)”.

With “441 (QEVAQVASAIL; listed as Homo sapiens) [compound 441]”, the “Peptide exchange” value is listed as “++++ (>75% = ++++)”.

As to “38 (DEVRFFKGNKY; listed as Homo sapiens) [compound 38]”, the “Peptide exchange” value was “++ (>20% = ++)”.

As for “353 (AETEEGIYW; listed as Homo sapiens) [compound 353]”, the “Peptide exchange” value is listed as “++++ (>75% = ++++)”.

With “260 (VELMFPLLL; listed as Homo sapiens) [compound 260]”, the “Peptide exchange” value is recorded as “+++ (>50 = +++)”.

In the case of “341 (HELESENKKW; listed as Homo sapiens) [compound 341]”, the “Peptide exchange” value is recorded as “+++ (>50 = +++)”.

“426 (AESLFREAL; listed as Homo sapiens) [compound 426]”: the “Peptide exchange” value is recorded as “+++ (>50 = +++)”.

Regarding “295 (QELEQEVISL; listed as Homo sapiens) [compound 295]”, the “Peptide exchange” value was “+++ (>50 = +++)”.

As to “181 (HEVAQDDHL; listed as Homo sapiens) [compound 181]”, the “Peptide exchange” value is on record as “++ (>20% = ++)”.

With “123 (DEINHQSL; listed as Homo sapiens) [compound 123]”, the “Peptide exchange” value is on record as “++ (>20% = ++)”.

As for “163 (AEDEDGKIVGY; listed as Homo sapiens) [compound 163]”, the “Peptide exchange” value is “++ (>20% = ++)”.

As for “388 (VEIVTIPSL; listed as Homo sapiens) [compound 388]”, the “Peptide exchange” value is on record as “+++ (>50 = +++)”.

As to “240 (MELQVSSGF; listed as Homo sapiens) [compound 240]”, the “Peptide exchange” value is on record as “+++ (>50 = +++)”.

As for “430 (RELARVVTL; listed as Homo sapiens) [compound 430]”, the “Peptide exchange” value is “++++ (>75% = ++++)”.

Regarding “381 (QELMAFSFAGL; listed as Homo sapiens) [compound 381]”, the “Peptide exchange” value is “++++ (>75% = ++++)”.

In the case of “324 (QELSSIRQF; listed as Homo sapiens) [compound 324]”, the “Peptide exchange” value is “+++ (>50 = +++)”.

Take “290 (AECILSKRL; listed as Homo sapiens) [compound 290]”: the “Peptide exchange” value is reported as “+++ (>50 = +++)”.

With “296 (AETIFIVRL; listed as Homo sapiens) [compound 296]”, the “Peptide exchange” value was “++ (>20% = ++)”.

As to “400 (TELGLFGVW; listed as Homo sapiens) [compound 400]”, the “Peptide exchange” value is “++++ (>75% = ++++)”.

“366 (EECGKAFKKF; listed as Homo sapiens) [compound 366]”: the “Peptide exchange” value was “+++ (>50 = +++)”.

For the substance “432 (TEENGFWYL; listed as Homo sapiens) [compound 432]”, the “Peptide exchange” value was “++++ (>75% = ++++)”.

As to “325 (AEQEIMKKV; listed as Homo sapiens) [compound 325]”, the “Peptide exchange” value is given as “++++ (>75% = ++++)”.

Regarding “372 (EEYKFPSLF; listed as Homo sapiens) [compound 372]”, the “Peptide exchange” value was “+++ (>50 = +++)”.

Take “317 (TEFQQIINL; listed as Homo sapiens) [compound 317]”: the “Peptide exchange” value is given as “++++ (>75% = ++++)”.
